Like-named read-outs stand apart in the source and are kept apart here.
Assays:
[1] = Repeat dose pharmacokinetics of EXT608 in male and female cynomolgus monkeys; type: in vivo; conditions: cynomolgus monkey; for Cmin: 0-48 h; for AUC(0-t): sc
Method: 21-Day Experiment: EXT608 was formulated in 20 mM sodium acetate pH=5.5 buffer with 0.8% sodium chloride. In a repeat dose toxicokinetic study, groups of 4 cynomolgus monkeys (2 males+2 females weighing approximately 2.5 kg each) were subcutaneously dosed every other day at a volume of 0.05 ml/kg with either 1.4, 7 or 20 μg/kg of EXT608. On the last day of dosing, Day 21, blood samples (˜1.0 ml) were collected at t=0 (pre-dose), 0.5, 1, 3, 6, 12, 24, 48, and 72 h. Each blood sample was collected from the saphenous vein into tubes containing K2EDTA and centrifuged (˜2700 g, ˜10 min, ˜5° C.) within 1 hour of collection. Plasma was recovered and divided evenly into duplicate aliquots and frozen. 90-Day Experiment: EXT608 was formulated in 10 mM sodium acetate pH=5.5 buffer with 0.8% sodium chloride and 0.1% Polysorbate 80. In a repeat dose toxicokinetic study, groups of 6 cynomolgus monkeys (3 males+3 females) were subcutaneously dosed every other day at a volume of 0.05 ml/kg with either 0.7 or 2 μg/kg of EXT608. On the last day of dosing, Day 89, blood samples (˜1.0 ml) were collected at t=0 (pre-dose), 0.5, 1, 3, 6, 12, 24, 48, and 72 h. Plasma was prepared as described above for the 21-Day experiment. […] Group-averaged EXT608 levels as a function of time are shown in FIG. 14 for the last dose administration after either 21 days of every other day dosing (20, 7, and 1.4 μg/kg) or 89 days of every other day dosing (2 and 0.7 μg/kg). Surprising, the PK profiles changed as a function of dose level. […] Pharmacokinetic parameters were determined from the plasma concentration versus time data (Table 7) by a non-compartmental extravascular administration model with uniform weighting using Phoenix® WinNonlin® Version 6.4 (Certara L.P. (Pharsight), Princeton, NJ). Pharmacokinetic analysis was performed on data for individual animals collected from t=0 to 72 h following the last administered dose. […] It is noted that the t1/2 values were calculated from less than three half-lives of data. […] The Cmax/Cmin ratio represents the peak-to-trough ratio of EXT608 concentration that is observed during a dosing period. […] Without being bound by theory, the low peak-to-trough ratios observed at low doses could be the result of a slower rate of absorption of EXT608 from the subcutaneous space into circulation. A low peak-to-trough ratio is desirable in many therapeutic applications including parathyroid hormone replacement therapy. This is because it allows dosing at levels close to the ideal efficacious dose without going too high where toxicity is observed, or too low where the efficacy is reduced.

Solubility in PBS (A280) = type: physicochemical
Method: PEG Length and Counterion Affects Solubility: The solubility of the acetate and carbonate salt form of each compound was determined as follows. For EXT611, EXT606, and EXT608, phosphate buffered saline (PBS) was added to each compound to form a saturated solution. Undissolved compound was removed by centrifugation. The concentration of dissolved compound was determined by measuring the absorbance at 280 nm using an extinction coefficient of 18,600 M^−1 cm^−1. For EXT615, EXT616, and EXT617, solubility was limited practically by the high viscosity imparted by the large PEG moieties. Highly viscous drug formulations are difficult to manipulate and require large needle bore sizes that cause increased injection site pain. PBS was added to EXT615, EXT616, and EXT617 incrementally until a solution was obtained that could be successfully pipetted through a pipet tip with a bore of approximately 1 mm diameter (enlarged by removing the end with a razor blade). The concentration of dissolved compound was determined by measuring the absorbance at 280 nm using an extinction coefficient of 18,600 M^−1 cm^−1. […] For EXT608, the acetate salt was 17.6-fold more soluble than the carbonate salt.

[2] = in vivo, 1.4 ug/kg, every-other-day SC 1.4 μg/kg, 21 days

In the case of `C=C1CC[C@H](OCCCNC(=O)CCOCCOCCOCCOCCOCCOCCOCCOCCOCCOCCOCCOCCOCCOCCOCCOCCOCCOCCOCCOCCOCCOCCOCCOCCOCCOCCOCCOCCOCCOCCOCCOCCOCCOCCOCCOCCNC(=O)CCN2C(=O)CC(SC[C@H](NC(=O)[C@H](Cc3ccccc3)NC(=O)[C@H](CC(N)=O)NC(=O)[C@H](Cc3c[nH]cn3)NC(=O)[C@@H](NC(=O)[C@H](CC(=O)O)NC(=O)[C@H](CCC(N)=O)NC(=O)[C@H](CC(C)C)NC(=O)[C@H](CCCCN)NC(=O)[C@H](CCCCN)NC(=O)[C@H](CCCNC(=N)N)NC(=O)[C@H](CC(C)C)NC(=O)[C@H](Cc3c[nH]c4ccccc34)NC(=O)[C@H](CCC(=O)O)NC(=O)[C@@H](NC(=O)[C@H](CCCNC(=N)N)NC(=O)[C@H](CCC(=O)O)NC(=O)[C@H](CCSC)NC(=O)[C@H](CO)NC(=O)[C@H](CC(N)=O)NC(=O)[C@H](CC(C)C)NC(=O)[C@H](Cc3c[nH]cn3)NC(=O)[C@H](CCCCN)NC(=O)CNC(=O)[C@H](CC(C)C)NC(=O)[C@H](CC(N)=O)NC(=O)[C@H](Cc3c[nH]cn3)NC(=O)[C@H](CCSC)NC(=O)[C@H](CC(C)C)NC(=O)[C@H](CCC(N)=O)NC(=O)[C@@H](NC(=O)[C@H](CCC(=O)O)NC(=O)[C@H](CO)NC(=O)[C@@H](NC(=O)[C@@H](N)CO)C(C)C)[C@@H](C)CC)C(C)C)C(C)C)C(N)=O)C2=O)C/C1=C/C=C1\CCC[C@]2(C)[C@@H]([C@H](C)CCCC(C)(C)O)CC[C@@H]12` (stereo partly shown) [EXT608], the Cmin ([1]; every-other-day SC 0.7 μg/kg, 89 days) is reported as 0.600 ng/mL, the Cmin ([1]; every-other-day SC 1.4 μg/kg, 21 days) is reported as 0.485 ng/mL and the Cmin ([1]; every-other-day SC 2 μg/kg, 89 days) is reported as 0.635 ng/mL. It also gave a Cmin ([1]; every-other-day SC 7 μg/kg, 21 days) of 0.991 ng/mL, a Cmin ([1]; every-other-day SC 20 μg/kg, 21 days) of 1.97 ng/mL and an AUC(0-t) ([1]; in vivo, 0.7 ug/kg, every-other-day SC 0.7 μg/kg, 89 days, read-out: AUC0-48 h) of 45.4 ng·h/mL. It also gave an AUC(0-t) ([1]; in vivo, 0.7 ug/kg, every-other-day SC 0.7 μg/kg, 89 days, read-out: AUClast) of 61.6 ng·h/mL, an AUC(0-t) ([1]; in vivo, 1.4 ug/kg, every-other-day SC 1.4 μg/kg, 21 days, read-out: AUC0-48 h) of 41.5 ng·h/mL and an AUC(0-t) ([1]; in vivo, 1.4 ug/kg, every-other-day SC 1.4 μg/kg, 21 days, read-out: AUClast) of 48 ng·h/mL. It also gave an AUC(0-t) ([1]; in vivo, 2 ug/kg, every-other-day SC 2 μg/kg, 89 days, read-out: AUC0-48 h) of 63.1 ng·h/mL, an AUC(0-t) ([1]; in vivo, 7 ug/kg, every-other-day SC 7 μg/kg, 21 days, read-out: AUC0-48 h) of 147 ng·h/mL and an AUC(0-t) ([1]; in vivo, 20 ug/kg, every-other-day SC 20 μg/kg, 21 days, read-out: AUC0-48 h) of 401 ng·h/mL. It also gave a Cmax [1, 2] of 1.63 ng/mL, a Tmax [1, 2] of 1.8 h and a Cmax ([1]; in vivo, 20 ug/kg, every-other-day SC 20 μg/kg, 21 days) of 38.1 ng/mL. The half-life ([1]; in vivo, repeated every-other-day SC dosing, across doses, calculated from less than three half-lives of data, read-out: t1/2 of elimination) was 34.7 to 51 h, the “fold more soluble, acetate salt vs carbonate salt” value (Solubility in PBS (A280)) was 17.6 fold and the solubility (Solubility in PBS (A280); acetate salt, read-out: Solubility as Acetate) was 9.67 mM. For the same compound, the solubility (Solubility in PBS (A280); carbonate salt, read-out: Solubility as Carbonate) was 0.55 mM.

— patent publication US12233115B2, “Long-acting parathyroid hormone” (Extend Biosciences, Inc., priority 2022, dated 2025)
